Laboratory results from patent publication US20250262210A1 (TRUSTEES OF COLUMBIA UNIVERSITY IN THE CITY OF NEW YORK, published 2025).

Legend:
Test in all cases: IP/MS, LZTR1 wild type-FLAG, U87
UBE4B = biological target: T1, UBE4B (human, UniProt O95155 1-1302, limits assumed)
T1 sequence (looked up): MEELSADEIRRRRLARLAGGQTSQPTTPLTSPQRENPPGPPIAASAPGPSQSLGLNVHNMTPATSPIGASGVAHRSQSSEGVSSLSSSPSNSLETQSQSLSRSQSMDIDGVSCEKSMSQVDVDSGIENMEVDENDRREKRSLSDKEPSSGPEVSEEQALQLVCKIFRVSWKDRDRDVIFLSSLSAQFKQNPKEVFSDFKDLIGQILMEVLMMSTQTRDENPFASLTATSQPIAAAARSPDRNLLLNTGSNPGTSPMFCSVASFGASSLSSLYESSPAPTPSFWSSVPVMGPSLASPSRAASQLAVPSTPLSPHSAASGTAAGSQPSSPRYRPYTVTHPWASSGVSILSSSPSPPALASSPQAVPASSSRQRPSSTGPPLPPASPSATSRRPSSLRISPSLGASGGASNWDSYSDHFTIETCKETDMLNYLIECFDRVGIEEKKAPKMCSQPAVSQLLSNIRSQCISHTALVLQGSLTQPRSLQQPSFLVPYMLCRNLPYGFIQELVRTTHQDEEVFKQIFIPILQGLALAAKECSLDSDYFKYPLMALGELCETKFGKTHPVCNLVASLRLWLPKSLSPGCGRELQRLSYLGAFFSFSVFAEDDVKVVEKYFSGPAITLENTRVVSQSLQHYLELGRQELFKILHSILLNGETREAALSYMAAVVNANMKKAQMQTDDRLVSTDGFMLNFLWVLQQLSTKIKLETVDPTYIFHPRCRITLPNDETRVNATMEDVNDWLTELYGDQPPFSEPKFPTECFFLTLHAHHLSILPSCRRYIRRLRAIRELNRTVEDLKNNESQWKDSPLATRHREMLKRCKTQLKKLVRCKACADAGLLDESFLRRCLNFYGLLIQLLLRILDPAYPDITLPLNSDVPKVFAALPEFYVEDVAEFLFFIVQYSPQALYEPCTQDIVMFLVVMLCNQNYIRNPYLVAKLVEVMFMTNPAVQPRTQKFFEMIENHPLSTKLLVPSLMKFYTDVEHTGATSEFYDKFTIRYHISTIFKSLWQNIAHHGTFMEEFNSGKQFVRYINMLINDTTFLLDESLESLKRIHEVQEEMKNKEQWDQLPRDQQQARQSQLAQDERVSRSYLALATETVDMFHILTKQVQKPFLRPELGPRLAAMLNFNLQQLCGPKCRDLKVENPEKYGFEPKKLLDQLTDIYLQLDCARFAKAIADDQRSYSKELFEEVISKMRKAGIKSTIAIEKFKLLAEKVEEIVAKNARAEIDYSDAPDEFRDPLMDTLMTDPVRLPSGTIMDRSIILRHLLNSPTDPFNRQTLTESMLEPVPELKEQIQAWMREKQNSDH
How it was run: (§1)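 Gel slices were reduced with 5 mM DTT, alkylated with 11 mM IAA and digested overnight at 37° C. with trypsin. Peptides were analysed on an Orbitrap Fusion Tribrid by LC-MS/MS.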

TRIM16 = TRIM16 (human, UniProt O95361 1-564, limits assumed)
How it was run: as §1

KDM5C = KDM5C (human, UniProt P41229 1-1560, limits assumed)
KDM5C, sequence (P41229 whole entry): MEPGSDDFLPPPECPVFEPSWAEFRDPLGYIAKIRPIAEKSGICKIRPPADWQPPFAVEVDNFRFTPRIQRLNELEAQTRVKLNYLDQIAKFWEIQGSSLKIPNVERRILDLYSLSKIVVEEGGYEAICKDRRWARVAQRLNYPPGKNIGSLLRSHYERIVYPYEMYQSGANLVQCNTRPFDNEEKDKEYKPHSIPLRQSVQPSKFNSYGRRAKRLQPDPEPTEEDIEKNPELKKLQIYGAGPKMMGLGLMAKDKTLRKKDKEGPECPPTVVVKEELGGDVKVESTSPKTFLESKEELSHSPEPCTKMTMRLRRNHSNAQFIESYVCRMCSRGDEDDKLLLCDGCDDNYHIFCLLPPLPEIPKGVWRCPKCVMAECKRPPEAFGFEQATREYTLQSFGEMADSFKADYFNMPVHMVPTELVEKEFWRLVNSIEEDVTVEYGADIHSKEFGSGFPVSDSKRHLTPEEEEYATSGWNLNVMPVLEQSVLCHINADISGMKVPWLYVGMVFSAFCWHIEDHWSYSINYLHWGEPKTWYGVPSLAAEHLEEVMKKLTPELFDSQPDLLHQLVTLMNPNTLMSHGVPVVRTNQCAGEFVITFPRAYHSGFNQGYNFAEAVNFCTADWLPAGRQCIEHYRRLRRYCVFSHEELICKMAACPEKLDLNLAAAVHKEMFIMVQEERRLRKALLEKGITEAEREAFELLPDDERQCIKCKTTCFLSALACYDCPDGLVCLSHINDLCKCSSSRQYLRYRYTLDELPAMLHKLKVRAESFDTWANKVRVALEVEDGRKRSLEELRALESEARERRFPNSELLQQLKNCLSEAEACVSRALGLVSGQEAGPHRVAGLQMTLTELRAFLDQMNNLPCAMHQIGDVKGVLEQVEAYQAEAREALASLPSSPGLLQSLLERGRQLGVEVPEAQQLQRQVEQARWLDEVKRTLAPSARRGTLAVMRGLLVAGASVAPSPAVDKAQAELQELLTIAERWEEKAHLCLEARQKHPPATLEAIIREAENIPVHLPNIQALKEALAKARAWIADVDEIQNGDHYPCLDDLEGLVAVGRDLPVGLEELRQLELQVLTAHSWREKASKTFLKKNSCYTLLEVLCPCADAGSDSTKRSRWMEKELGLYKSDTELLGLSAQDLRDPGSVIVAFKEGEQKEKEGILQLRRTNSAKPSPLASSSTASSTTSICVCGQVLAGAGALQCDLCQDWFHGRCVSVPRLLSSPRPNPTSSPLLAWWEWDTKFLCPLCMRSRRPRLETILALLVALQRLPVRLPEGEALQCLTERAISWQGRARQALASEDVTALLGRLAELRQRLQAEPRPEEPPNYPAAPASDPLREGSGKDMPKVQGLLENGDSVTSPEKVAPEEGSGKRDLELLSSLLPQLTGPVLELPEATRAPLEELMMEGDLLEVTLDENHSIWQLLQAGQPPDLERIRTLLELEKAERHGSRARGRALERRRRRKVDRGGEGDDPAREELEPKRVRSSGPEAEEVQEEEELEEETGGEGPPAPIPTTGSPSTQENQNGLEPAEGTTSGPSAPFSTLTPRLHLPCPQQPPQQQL
How it was run: as §1

URB1 = URB1 (human, UniProt O60287 1-2271)
URB1, sequence (O60287 whole entry): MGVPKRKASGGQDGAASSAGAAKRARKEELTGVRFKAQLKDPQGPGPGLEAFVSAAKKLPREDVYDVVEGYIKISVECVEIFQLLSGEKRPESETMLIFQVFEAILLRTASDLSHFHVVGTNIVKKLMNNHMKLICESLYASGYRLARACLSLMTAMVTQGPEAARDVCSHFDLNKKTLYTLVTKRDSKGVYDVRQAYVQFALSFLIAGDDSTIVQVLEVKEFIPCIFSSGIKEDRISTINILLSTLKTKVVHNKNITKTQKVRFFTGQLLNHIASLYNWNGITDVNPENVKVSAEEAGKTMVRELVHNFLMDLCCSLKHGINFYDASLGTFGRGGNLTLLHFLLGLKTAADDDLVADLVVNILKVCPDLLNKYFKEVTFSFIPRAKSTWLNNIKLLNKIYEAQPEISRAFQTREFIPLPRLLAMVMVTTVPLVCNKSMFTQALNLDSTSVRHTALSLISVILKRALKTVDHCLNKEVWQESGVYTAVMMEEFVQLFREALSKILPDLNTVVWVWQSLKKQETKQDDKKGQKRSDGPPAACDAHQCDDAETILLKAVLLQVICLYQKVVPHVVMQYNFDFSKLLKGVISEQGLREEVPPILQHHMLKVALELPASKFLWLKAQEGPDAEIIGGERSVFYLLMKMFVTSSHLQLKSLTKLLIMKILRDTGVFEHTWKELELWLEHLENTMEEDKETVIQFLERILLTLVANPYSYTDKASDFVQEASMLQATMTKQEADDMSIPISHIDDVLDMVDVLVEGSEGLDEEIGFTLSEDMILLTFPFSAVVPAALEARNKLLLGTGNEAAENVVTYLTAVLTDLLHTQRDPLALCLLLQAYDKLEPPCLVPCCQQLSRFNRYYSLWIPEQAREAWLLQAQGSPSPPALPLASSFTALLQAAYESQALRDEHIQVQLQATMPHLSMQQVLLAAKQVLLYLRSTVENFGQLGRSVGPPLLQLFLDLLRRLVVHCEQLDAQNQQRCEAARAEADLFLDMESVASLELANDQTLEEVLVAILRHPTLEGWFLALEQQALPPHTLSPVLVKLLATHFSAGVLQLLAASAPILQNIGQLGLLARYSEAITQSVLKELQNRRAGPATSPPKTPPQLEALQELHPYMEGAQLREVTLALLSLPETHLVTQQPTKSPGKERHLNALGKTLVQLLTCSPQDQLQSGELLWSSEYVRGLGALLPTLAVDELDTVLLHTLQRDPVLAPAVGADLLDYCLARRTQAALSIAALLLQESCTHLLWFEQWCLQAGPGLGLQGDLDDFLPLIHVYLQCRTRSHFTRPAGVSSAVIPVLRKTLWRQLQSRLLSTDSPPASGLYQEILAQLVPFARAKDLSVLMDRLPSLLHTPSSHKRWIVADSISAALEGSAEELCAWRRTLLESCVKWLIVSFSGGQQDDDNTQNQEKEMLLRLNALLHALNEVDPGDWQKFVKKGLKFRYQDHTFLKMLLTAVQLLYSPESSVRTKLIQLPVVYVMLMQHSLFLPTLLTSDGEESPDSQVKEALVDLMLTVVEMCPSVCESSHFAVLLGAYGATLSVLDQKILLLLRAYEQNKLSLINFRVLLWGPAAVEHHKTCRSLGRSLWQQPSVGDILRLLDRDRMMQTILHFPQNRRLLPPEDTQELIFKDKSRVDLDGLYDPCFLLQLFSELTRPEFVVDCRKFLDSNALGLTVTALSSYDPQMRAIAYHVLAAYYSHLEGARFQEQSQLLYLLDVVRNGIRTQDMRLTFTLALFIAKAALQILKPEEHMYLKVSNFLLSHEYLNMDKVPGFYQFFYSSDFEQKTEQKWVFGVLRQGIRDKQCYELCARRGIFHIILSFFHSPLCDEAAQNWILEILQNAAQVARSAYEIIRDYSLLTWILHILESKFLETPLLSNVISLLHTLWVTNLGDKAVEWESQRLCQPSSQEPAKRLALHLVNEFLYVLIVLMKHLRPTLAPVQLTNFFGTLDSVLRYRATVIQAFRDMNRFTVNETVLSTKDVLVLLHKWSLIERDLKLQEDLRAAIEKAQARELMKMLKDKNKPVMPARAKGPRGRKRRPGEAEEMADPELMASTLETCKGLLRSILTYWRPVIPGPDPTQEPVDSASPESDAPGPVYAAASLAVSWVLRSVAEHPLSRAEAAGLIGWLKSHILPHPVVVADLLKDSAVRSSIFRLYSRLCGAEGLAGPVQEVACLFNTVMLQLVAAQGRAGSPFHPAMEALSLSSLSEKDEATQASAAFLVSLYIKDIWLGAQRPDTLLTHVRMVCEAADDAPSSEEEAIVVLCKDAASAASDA
How it was run: as §1

- binding result (UBE4B): binds
- binding result (TRIM16): binds
- binding result (KDM5C): binds
- binding result (URB1): binds
B1: LZTR1-FLAG (other, human, UniProt Q8N653 1-840, looked up)
chain: MAGPGSTGGQIGAAALAGGARSKVAPSVDFDHSCSDSVEYLTLNFGPFETVHRWRRLPPCDEFVGARRSKHTVVAYKDAIYVFGGDNGKTMLNDLLRFDVKDCSWCRAFTTGTPPAPRYHHSAVVYGSSMFVFGGYTGDIYSNSNLKNKNDLFEYKFATGQWTEWKIEGRLPVARSAHGATVYSDKLWIFAGYDGNARLNDMWTIGLQDRELTCWEEVAQSGEIPPSCCNFPVAVCRDKMFVFSGQSGAKITNNLFQFEFKDKTWTRIPTEHLLRGSPPPPQRRYGHTMVAFDRHLYVFGGAADNTLPNELHCYDVDFQTWEVVQPSSDSEVGGAEVPERACASEEVPTLTYEERVGFKKSRDVFGLDFGTTSAKQPTQPASELPSGRLFHAAAVISDAMYIFGGTVDNNIRSGEMYRFQFSCYPKCTLHEDYGRLWESRQFCDVEFVLGEKEECVQGHVAIVTARSRWLRRKITQARERLAQKLEQEAAPVPREAPGVAAGGARPPLLHVAIREAEARPFEVLMQFLYTDKIKYPRKGHVEDVLLIMDVYKLALSFQLCRLEQLCRQYIEASVDLQNVLVVCESAARLQLSQLKEHCLNFVVKESHFNQVIMMKEFERLSSPLIVEIVRRKQQPPPRTPLDQPVDIGTSLIQDMKAYLEGAGAEFCDITLLLDGHPRPAHKAILAARSSYFEAMFRSFMPEDGQVNISIGEMVPSRQAFESMLRYIYYGEVNMPPEDSLYLFAAPYYYGFYNNRLQAYCKQNLEMNVTVQNVLQILEAADKTQALDMKRHCLHIIVHQFTKVSKLPTLRSLSQQLLLDIIDSLASHISDKQCAELGADI
notes: Expressed in HEK 293T, HeLa or U87 cells; used as cell lysate; also called LZTR1 wild type-FLAG; LZTR1 WT; not shown: FLAG tag at the C-terminus
